Experimental data published in paper PMC11251522, “Transcription factors ERα and Sox2 have differing multiphasic DNA- and RNA-binding mechanisms”.

Columns and labels:
Sox2 HMG [1] = target: T1, Sox2 HMG (human, UniProt P48431 40-123); assay: fluorescence anisotropy; apparent; Hill n 0.68; FP at 4°C; ERα: 20 mM Tris pH 7.5 (at 25°C), 100 mM NaCl, 5% glycerol, 0.01% IGEPAL; Sox2: 10 mM Tris pH 7.5 (at 25°C), 135 mM KCl, 15 mM NaCl, 0.1 mg/mL BSA, 4% Ficoll, 0.05% NP-40, 1 mM DTT; SPR: ERα buffer, 25°C; details: protein: recombinant; tags: N-terminal His8-MBP, 3C-cleaved
Sox2 HMG [2] = target: T1, Sox2 HMG; assay: fluorescence anisotropy; second (low-affinity) transition; FP at 4°C; ERα: 20 mM Tris pH 7.5 (at 25°C), 100 mM NaCl, 5% glycerol, 0.01% IGEPAL; Sox2: 10 mM Tris pH 7.5 (at 25°C), 135 mM KCl, 15 mM NaCl, 0.1 mg/mL BSA, 4% Ficoll, 0.05% NP-40, 1 mM DTT; SPR: ERα buffer, 25°C; details: protein: recombinant; tags: N-terminal His8-MBP, 3C-cleaved; G-quadruplex
Sox2 HMG [3] = target: T1, Sox2 HMG; assay: fluorescence anisotropy; printed ≤1; first (high-affinity) transition, 44% of signal; FP at 4°C; ERα: 20 mM Tris pH 7.5 (at 25°C), 100 mM NaCl, 5% glycerol, 0.01% IGEPAL; Sox2: 10 mM Tris pH 7.5 (at 25°C), 135 mM KCl, 15 mM NaCl, 0.1 mg/mL BSA, 4% Ficoll, 0.05% NP-40, 1 mM DTT; SPR: ERα buffer, 25°C; details: protein: recombinant; tags: N-terminal His8-MBP, 3C-cleaved; G-quadruplex

T1 sequence (P48431 40-123): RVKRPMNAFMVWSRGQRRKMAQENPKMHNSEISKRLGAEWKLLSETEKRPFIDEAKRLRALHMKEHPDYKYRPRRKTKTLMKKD

Binder	Kd (Sox2 HMG [1]) [nM]	Kd (Sox2 HMG [2]) [nM]	Kd (Sox2 HMG [3]) [nM]
AAAAAAAAAAAAAAAAAAAA (ssRNA) [poly(A) RNA (rA20)]	40 ± 13	–	–
GGGAAGGGAAGGGAAGGGAA (structured_RNA) [G4 RNA (rG4), (G3A2)4]	–	110 ± 32	< 1
